Tests used:
[1] = target: the molecule itself; experiment: cryo-EM structure; purified PIN1 and sybody-21 mixed at a molar ratio of ~1:3, gel filtration in 25 mM HEPES pH 7.4, 150 mM NaCl, 0.02% GDN; apo, IAA-bound (10 mM IAA) and NPA-bound (100 uM NPA) samples
[2] = target: T1, Arabidopsis thaliana PIN1 (PIN-FORMED 1 auxin transporter), full length, N-terminal Flag tag (A. thaliana, UniProt Q9C6B8); experiment: as above; conditions: both partners purified
T1 construct: PIN1, Arabidopsis thaliana, UniProt Q9C6B8, full length; most of the hydrophilic loop is not visible in the cryo-EM map; Forms a homodimer in the cryo-EM structures; A monomeric class was also seen in the apo sample; also called AtPIN1; WT PIN1

B1: Arabidopsis thaliana PIN1 (PIN-FORMED 1 auxin transporter), full length, N-terminal Flag tag (natural protein, A. thaliana, UniProt Q9C6B8 1-622, looked up)
chain: MITAADFYHVMTAMVPLYVAMILAYGSVKWWKIFTPDQCSGINRFVALFAVPLLSFHFIAANNPYAMNLRFLAADSLQKVIVLSLLFLWCKLSRNGSLDWTITLFSLSTLPNTLVMGIPLLKGMYGNFSGDLMVQIVVLQCIIWYTLMLFLFEYRGAKLLISEQFPDTAGSIVSIHVDSDIMSLDGRQPLETEAEIKEDGKLHVTVRRSNASRSDIYSRRSQGLSATPRPSNLTNAEIYSLQSSRNPTPRGSSFNHTDFYSMMASGGGRNSNFGPGEAVFGSKGPTPRPSNYEEDGGPAKPTAAGTAAGAGRFHYQSGGSGGGGGAHYPAPNPGMFSPNTGGGGGTAAKGNAPVVGGKRQDGNGRDLHMFVWSSSASPVSDVFGGGGGNHHADYSTATNDHQKDVKISVPQGNSNDNQYVEREEFSFGNKDDDSKVLATDGGNNISNKTTQAKVMPPTSVMTRLILIMVWRKLIRNPNSYSSLFGITWSLISFKWNIEMPALIAKSISILSDAGLGMAMFSLGLFMALNPRIIACGNRRAAFAAAMRFVVGPAVMLVASYAVGLRGVLLHVAIIQAALPQGIVPFVFAKEYNVHPDILSTAVIFGMLIALPITLLYYILLGL
notes: PIN1, Arabidopsis thaliana, UniProt Q9C6B8, full length; most of the hydrophilic loop is not visible in the cryo-EM map; Forms a homodimer in the cryo-EM structures; A monomeric class was also seen in the apo sample; also called AtPIN1; WT PIN1
stoichiometry N [1]: 2

B2: Sybody-21 (synthetic nanobody selected against PIN1) (VHH)
VHH: QVQLVESGGGLVQAGGSLRLSCAASGFPVNISWMEWYRQVPGKEREWVAAIQSTGSYTWYADSVKGRFTISRDNAKNTVYLQMNSLKPEDTAVYYCRVKVGAYYRGQGTQVTVSA
notes: Selected by ribosome display and phage display from the Concave, Loop or Convex sybody libraries; The BLI methods speak of a His-tagged sybody; How the purified Sybody-21 was made is not described; also called the sybody
binding result [2]: binds

Source: publication PMC9477737, “Structural insights into auxin recognition and efflux by Arabidopsis PIN1” (Nature, 2022)
